In patent publication US20200316217A1:

How the values were obtained:
Experiment in all cases: cell-based or functional assay
[1] = target: Human PTHR1 WT (human) (UniProt Q03431)
[2] = target: PTHR16E (human) (UniProt Q03431)
[3] = target: PTHR1GFP (human) (UniProt Q03431)
[4] = target: PTHR1YFPΔECD (human)
[5] = target: rat PTHR1 (rat) (UniProt P25961)
[6] = target: human PTHR2 (human) (UniProt P49190)
Chain of human PTHR2 (human) (P49190 25-550): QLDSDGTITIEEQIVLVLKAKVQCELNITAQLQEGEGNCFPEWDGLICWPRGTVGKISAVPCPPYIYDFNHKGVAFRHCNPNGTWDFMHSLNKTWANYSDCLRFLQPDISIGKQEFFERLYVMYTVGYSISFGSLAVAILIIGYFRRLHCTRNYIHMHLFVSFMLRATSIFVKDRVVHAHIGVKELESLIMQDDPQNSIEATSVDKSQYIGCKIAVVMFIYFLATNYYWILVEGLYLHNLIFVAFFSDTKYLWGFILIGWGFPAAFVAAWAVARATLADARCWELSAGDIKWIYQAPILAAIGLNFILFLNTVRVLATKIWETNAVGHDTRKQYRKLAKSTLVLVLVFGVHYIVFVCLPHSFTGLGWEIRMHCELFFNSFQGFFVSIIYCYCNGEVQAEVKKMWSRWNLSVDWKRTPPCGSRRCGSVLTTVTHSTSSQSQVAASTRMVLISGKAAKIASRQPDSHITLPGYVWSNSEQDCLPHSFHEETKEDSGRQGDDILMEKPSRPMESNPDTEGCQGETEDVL

Chain of rat PTHR1 (rat) (P25961 27-591): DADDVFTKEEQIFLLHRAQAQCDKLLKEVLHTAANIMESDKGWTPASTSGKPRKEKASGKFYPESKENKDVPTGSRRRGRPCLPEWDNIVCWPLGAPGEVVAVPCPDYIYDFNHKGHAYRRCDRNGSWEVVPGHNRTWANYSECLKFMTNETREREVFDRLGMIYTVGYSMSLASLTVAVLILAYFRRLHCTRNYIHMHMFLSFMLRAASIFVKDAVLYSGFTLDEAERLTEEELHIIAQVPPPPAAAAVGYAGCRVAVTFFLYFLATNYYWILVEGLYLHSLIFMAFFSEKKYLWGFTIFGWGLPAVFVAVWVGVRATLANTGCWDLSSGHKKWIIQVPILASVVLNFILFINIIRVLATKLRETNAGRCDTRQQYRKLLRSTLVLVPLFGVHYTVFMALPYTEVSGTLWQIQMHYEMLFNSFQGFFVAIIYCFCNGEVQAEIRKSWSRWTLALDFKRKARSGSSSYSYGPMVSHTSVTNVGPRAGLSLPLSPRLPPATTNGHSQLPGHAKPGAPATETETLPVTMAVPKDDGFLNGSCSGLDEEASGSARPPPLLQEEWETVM

PTH(1-9) (peptide) gave a Stimulation of receptor (cAMP), EC50 [1] of over 10000 nM, a cAMP induction EC50 [1] of over 10000 nM and a Stimulation of receptor (cAMP), EC50 [2] of over 10000 nM. The cAMP induction EC50 [2] was over 10000 nM, the cAMP induction EC50 [3] was over 10000 nM and the Stimulation of receptor (cAMP), EC50 [4] was over 10000 nM. The cAMP induction EC50 [4] was over 10000 nM.
With PTH(1-10) (peptide) the Stimulation of receptor (cAMP), EC50 [1] was 3120 nM, the cAMP induction EC50 [1] was 3120 nM and the cAMP induction Max (normalized) [1] was 1.03 normalized. For the same substance, the Stimulation of receptor (cAMP), EC50 [2] was 5080 nM, the cAMP induction EC50 [2] was 5080 nM and the cAMP induction Max (normalized) [2] was 1.09 normalized. The cAMP induction EC50 [3] was 2550 nM, the cAMP induction Max (normalized) [3] was 1.16 normalized and the Stimulation of receptor (cAMP), EC50 [4] was 3840 nM. For the same substance, the cAMP induction EC50 [4] was 3840 nM, the cAMP induction Max (normalized) [4] was 1.12 normalized and the cAMP induction EC50 [5] was 2470 nM. It also gave a cAMP induction Max (normalized) [5] of 1.09 normalized.
For PTH(1-11) (peptide), the Stimulation of receptor (cAMP), EC50 [1] was 516 nM, the cAMP induction EC50 [1] was 516 nM and the cAMP induction Max (normalized) [1] was 1.01 normalized. For the same substance, the Stimulation of receptor (cAMP), EC50 [2] was 94 nM, the cAMP induction EC50 [2] was 94 nM and the cAMP induction Max (normalized) [2] was 1.09 normalized. It also gave a cAMP induction EC50 [3] of 79 nM, a cAMP induction Max (normalized) [3] of 1.1 normalized and a half maximal stimulation (cAMP-sensitive luciferase) [3] of 200 nM. It also gave a Stimulation of receptor (cAMP), EC50 [4] of 246 nM, a cAMP induction EC50 [4] of 246 nM and a cAMP induction Max (normalized) [4] of 1.02 normalized. The cAMP induction EC50 [6] was over 100000 nM, the cAMP induction Max (normalized) [6] was 0.36 normalized and the cAMP induction, percent at 100 uM [6] was 20 % at 100 µM. The cAMP induction EC50 [5] was 120 nM and the cAMP induction Max (normalized) [5] was 1.02 normalized.
For PTH(1-14) (peptide), the Stimulation of receptor (cAMP), EC50 [1] was 4.3 nM, the cAMP induction EC50 [1] was 4.3 nM and the cAMP induction Max (normalized) [1] was 1.01 normalized. For the same substance, the Stimulation of receptor (cAMP), EC50 [2] was 3.4 nM, the cAMP induction EC50 [2] was 3.4 nM and the cAMP induction Max (normalized) [2] was 1.06 normalized. It also gave a cAMP induction EC50 [3] of 2.3 nM, a cAMP induction Max (normalized) [3] of 1.09 normalized and a Stimulation of receptor (cAMP), EC50 [4] of 1.1 nM. It also gave a cAMP induction EC50 [4] of 1.1 nM, a cAMP induction Max (normalized) [4] of 0.96 normalized and a cAMP induction EC50 [6] of 924 nM. It also gave a cAMP induction Max (normalized) [6] of 1.14 normalized.
With VHHGFP-PTH(1-9) the cAMP induction EC50 [3] was over 100 nM, the Stimulation of receptor (cAMP), percent activation (% activation at 100 nM) [4] was 40 and the cAMP induction Max (normalized) [4] was 0.38 normalized. The cAMP induction, percent activation (% activation at 100 nM) [4] was 40.
With VHHGFP-PTH(1-10) the cAMP induction EC50 [3] was over 100 nM, the Stimulation of receptor (cAMP), EC50 [4] was 0.46 nM and the cAMP induction EC50 [4] was 0.46 nM. For the same substance, the cAMP induction Max (normalized) [4] was 1.06 normalized and the potency, fold against PTH(1-10) [4] was 7800 fold.
VHHGFP-PTH(1-11) showed a Stimulation of receptor (cAMP), EC50 [1] of over 100 nM, an activation of PTHR1 [1] of over 100 nM and a cAMP induction EC50 [1] of over 100 nM. For the same substance, the Stimulation of receptor (cAMP), EC50 [2] was over 100 nM, the cAMP induction EC50 [2] was over 100 nM and the cAMP induction EC50 [3] was 8 nM. It also gave a cAMP induction Max (normalized) [3] of 1.1 normalized, a Stimulation of receptor (cAMP), EC50 [4] of 0.14 nM and an activity, fold enhancement against PTH(1-11) [4] of over 20000 fold. The cAMP induction EC50 [4] was 0.14 nM, the cAMP induction Max (normalized) [4] was 1.19 normalized and the cAMP induction EC50 [5] was over 100 nM.
VHHGFP-PTH(1-14) showed a Stimulation of receptor (cAMP), EC50 [1] of over 100 nM, a cAMP induction EC50 [1] of over 100 nM and a Stimulation of receptor (cAMP), EC50 [2] of over 100 nM. For the same substance, the cAMP induction EC50 [2] was over 100 nM, the cAMP induction EC50 [3] was 1.8 nM and the cAMP induction Max (normalized) [3] was 1.21 normalized. The Stimulation of receptor (cAMP), EC50 [4] was 0.58 nM, the cAMP induction EC50 [4] was 0.58 nM and the cAMP induction Max (normalized) [4] was 1.16 normalized.
